{
  "source": "patent US20230416343A1",
  "about": "(SORRENTO THERAPEUTICS, published 2023)",
  "molecular_target": "S protein of live SARS-CoV-2 WA-1/2020 isolate (SARS-CoV-2, UniProt P0DTC2 14-1273)",
  "test": "cell-based or functional assay",
  "data": [
    {"binder": "S1D7270LALA antibody (STI-2020) (antibody, V domains shown) VH: EVQLVESGGGLIQPGGSLRLSCAASGFTVSSNYMSWVRQAPGKGLEWVSIIYPGGSTEYADSVKGRFTISRDNSRNTLYLQMNSLRAEDTAVYYCARELGYYGMDVWGQGTTVTVSS VL: DIQMTQSPSSVSASVGDRVTITCRASQGISTWLVWYQQKPGKAPNLLIYGASSLQSGVPSRFSGSGSGTDFTLTISSLQPEDFATYYCQQANAYPYTFGQGTKLEIK", "values": [
      {"measurement": "IC50, inhibition of cytopathic effect (CPE) on Vero E6 cells, live virus", "value": 0.055, "unit": "µg/mL"}
    ]}
  ]
}
